The text below walks through data of PMC5028935, “De novo synthesis of fatty acids is regulated by FapR protein in Exiguobacterium antarcticum B7, a psychrotrophic bacterium isolated from Antarctica”.

This series deals with T1, FapR (Exiguobacterium antarcticum B7, UniProt A0ABT6QZ49 1-189).
T1 sequence: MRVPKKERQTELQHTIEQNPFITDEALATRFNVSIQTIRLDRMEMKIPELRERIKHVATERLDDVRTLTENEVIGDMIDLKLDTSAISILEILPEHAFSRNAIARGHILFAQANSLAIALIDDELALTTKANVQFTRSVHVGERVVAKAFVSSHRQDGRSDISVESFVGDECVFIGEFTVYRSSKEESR
The experiment in a line: EMSA; 2, 2.8, 3.8 and 4.5 uM protein; no shift; 10 mM Tris-HCl (pH not given), 0.2 mM DTT, 0.2 mM EDTA, 0.25 mM KCl (so in the source), 1 h on ice; 7.5% native PAGE, SYBR Safe stain. The settings on record: protein: recombinant; (pET-46 Ek/LIC vector adds a His tag); chain copies: 2.

B1: fapR-plsX-fabD-fabG promoter, synthesized up to the palindrome (dsDNA)
DNA 1: TACTTGAAAGTGAACAACAAGGGATATATACTACTATTAGTACCAGGTAATAA
DNA 2: TTATTACCTGGTACTAATAGTAGTATATATCCCTTGTTGTTCACTTTCAAGTA
Consider B1, for which the binding result was “no binding”.
